These results are taken from the supplement of paper PMC10567573.

± gives the standard deviation.

This data set is described as follows: protein stability index of a GFP-peptide fusion (GPS, HEK-293T) (PSI 1-6); higher = more stable.
Setting [1] is: treatment: DMSO, c terminus: a fixed tail appended.
Setting [2] is: treatment: MLN4924 1 uM, 8 h, c terminus: a fixed tail appended.
[3] abbreviates: treatment: DMSO, c terminus: native.
[4] abbreviates: treatment: MLN4924 1 uM, 8 h, c terminus: native.
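Also: 24-mer peptide tiles fused after GFP, lentivirally expressed, FACS-sorted into six equal bins by GFP/DsRed ratio, decoded by Illumina sequencing, PSI is the read-weighted mean bin number.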

For IPQLEDVSNFLKERTGFSIRPVAG [TPH1], the protein stability index by setting is: under setting [1], 2.98 ± 0.34; under setting [2], 2.98 ± 0.14. For IPRGFPTIDMGPQLKVVERTRTAT [PTPRD] the same measures were 3.92 ± 0.24 and 3.68 ± 0.37. Turning to IPVFRLARRRKKILFYCHFPDLLL [ALG2], the protein stability index is, setting by setting: under setting [1], 2.88 ± 0.57; under setting [2], 2.44 ± 0.29. With IRHQRIHTGEKPYTCHECGDSFSH [ZNF263], the protein stability index came out at 2.62 ± 0.4 under setting [1] and 2.7 ± 0.36 under setting [2]. As for IRLYGLQAGRLLWEQELYSQLVYS [WAS], the protein stability index by setting is: under setting [1], 3.11 ± 0.55; under setting [2], 2.7 ± 0.38. For ISAEGFTDIDIDTLCAVLERDTLS [BTBD1] the same measures were 2.48 ± 0.3 and 2.63 ± 0.38. For ISESMAACTRSLLGDPPPLLTLPR [HDAC6] the same measures were 2.98 ± 0.14 and 3.29 ± 0.41. For ISEYEKSLQFDEKCLSIMLAEWEA [RPAIN], in that order: 2.34 ± 0.3 and 2.87 ± 0.33. As to ISNVCEEYIVKKLSRQEFLGMVGL [SLC35F2], the protein stability index by setting is: under setting [1], 2.32 ± 0.17; under setting [2], 2.35 ± 0.13. For ITYPMLFKLTNKNSDRMTHCGVLE [UFD1], in that order: 2.46 ± 0.17 and 2.43 ± 0.23. For IVEDPQTKCEYMLNSMPKRLCLVC [ESRRG] the same measures were 2.39 ± 0.46 and 2.05 ± 0.24.

For IYCGAGVQKDHENYMKILLKVGGI [PCMTD1], the protein stability index runs as follows: under setting [1], 2.26 ± 0.17; under setting [2], 2.25 ± 0.44.

IYGMEGIPEKDMDERRRLLEQKTQ [ZNF207] gave a protein stability index under setting [1] of 4.6 ± 0.17 and a protein stability index under setting [2] of 4.69 ± 0.15. For the sequence IYRKYRKLIESELSYFVIVYSVM [FBXO39], the protein stability index came to 2.87 ± 0.62 under setting [3] and 2.89 ± 0.44 under setting [4].

Turning to KAAVSHWQQQSYLDSGIHSGATTT [CTNNB1], the protein stability index reads like this: under setting [1], 3.69 ± 0.2; under setting [2], 3.78 ± 0.17. For KATAAFSNVGTAISKKFGDMSYSI [TPD52L1], in that order: 2.72 ± 0.14 and 2.72 ± 0.13. For KCLYYLYATLDLNAVKYVSNIKFC [PDS5B] the same measures were 3.06 ± 0.41 and 2.75 ± 0.78. For KDARQWFAELSVDMEKILEIIRVI [CCNC], in that order: 2.24 ± 0.38 and 2.15 ± 0.35.

With KEDAKGKSEEELAECFRIFDRNAD [TNNC2], the protein stability index by setting is: under setting [1], 5.54 ± 0.24; under setting [2], 5.71 ± 0.12.

For KEIAKNLIQPINHTTLQCLAARVI [FEM1C], the protein stability index under setting [1] turned out to be 2.33 ± 0.5 and the protein stability index under setting [2] stood at 2.33 ± 0.47. In turn, KESGQEGVDSMAEEGTSDSNTGSE [SMARCE1] gave a protein stability index under setting [1] of 5.01 ± 0.61.

With KFADNKWSVTGKAEPAMPGRLYVH [TBX5], the protein stability index by setting is: under setting [1], 2.53 ± 0.094; under setting [2], 2.61 ± 0.27.

KFLAFSGPHPKSKIENGYPLHAPE [CDC14A]: the protein stability index was 3.23 ± 0.15 under setting [1] and 3.16 ± 0.29 under setting [2]. Consider KFLMARKFDVLRAIELFHSYRETR [PTPN9], for which the protein stability index amounted to 2.29 ± 0.54 under setting [1] and 2.15 ± 0.15 under setting [2]. For KFSQNSHLIKHRRTHTGEQPYTCS [ZNF75A] the same measures were 2.93 ± 0.14 and 3 ± 0.34. Sequence KGKTAVDTVFRFDPRYNKWMQVAS [KLHL13] displayed a protein stability index under setting [1] of 2.4 ± 0.3 and a protein stability index under setting [2] of 2.94 ± 0.5. For KGLNARMMRGLSYSLTTSSTHKSS [RAB40A] the same measures were 3.39 ± 0.28 and 3.52 ± 0.32. With KGPGAPQYPAGTQGEQLEVPERLL [SPSB2], the protein stability index turned out to be 4.93 ± 0.15 under setting [1] and 4.72 ± 0.26 under setting [2]. For KIAQNLDFVNLMAYDFHGSWEKVT [CHIT1], the protein stability index reads like this: under setting [1], 2.42 ± 0.35; under setting [2], 2.18 ± 0.39.

For the sequence KKAFLNQAQIELRLLELMNQHDTE [DYRK1B], the protein stability index under setting [1] was found to be 3.05 ± 0.3 and the protein stability index under setting [2] was 3.35 ± 0.14.

With KKELEENFEKLRLSLQDQVDTLTF [MTUS2], the protein stability index runs as follows: under setting [1], 3.94 ± 0.64; under setting [2], 3.8 ± 0.42. For KKIFKSHLKSSRNSTSVKKKSSRN [P2RY14], the protein stability index reads like this: under setting [1], 3.87 ± 0.32; under setting [2], 4.22 ± 0.41. For KKVSEGPPLRLWRSVIEVPAVPEE [DLC1], in that order: 3.37 ± 0.42 and 3.91 ± 0.46. With KKVSKAAILARIKRTGDGNYKSG [SCD], the protein stability index worked out at 2.88 ± 1.2 under setting [3] and 3.28 ± 0.21 under setting [4].

For KLAVFMWLMTYVGAVFNGITLLIL [RTN3], the protein stability index stood at 2.97 ± 0.23 under setting [1] and 3.21 ± 0.39 under setting [2].

Turning to KLDFKEKAQAKVGSLDNAHHVPGG [MAP2], the protein stability index turned out to be 4.73 ± 0.2 under setting [1] and 4.7 ± 0.16 under setting [2]. For KLMKNIRFPLMTPQELINYVQTVD [KLHL13], in that order: 2.87 ± 0.18 and 2.82 ± 0.19. For KLSPLRLSVSNNQEPDFIDDIEEK [KMT2E], in that order: 4.9 ± 0.24 and 5.06 ± 0.12.

KLVDAIVSGDTSKLMKILQPQDVD [RIPK4]: the protein stability index came out at 2.51 ± 0.31 under setting [1] and 2.38 ± 0.64 under setting [2]. For KMETMYPFIVTLEGNALQGPILQK [ZNF449] the same measures were 2.53 ± 0.24 and 2.48 ± 0.33. For KMVSAEISENRKRQWPTKSQTDRG [SDE2] the same measures were 4.52 ± 0.069 and 4.41 ± 0.2. For the sequence KNNDLVVAVNGESVETLDHDSVVE [PDZK1], the protein stability index came to 5.37 ± 0.27 under setting [1] and 5.34 ± 0.14 under setting [2]. For KQDSYEQGDSSQQSLKGHLRNNFQ [ZC2HC1C] the same measures were 4.69 ± 0.24 and 4.84 ± 0.11. Take KQDVLGPSTTPPAHSSSNTIRSGI [SASS6]: the protein stability index by setting is: under setting [1], 4.66 ± 0.34; under setting [2], 4.63 ± 0.22.

In the case of KQESTRPEKKSDQPMCEEHEEERI [TRIM55], the protein stability index is 5.73 ± 0.12 under setting [1] and 5.48 ± 0.26 under setting [2]. For KQLISQTKKKQWCYNCEEEAMYHC [ZMYND11] the same measures were 3.1 ± 0.17 and 3.22 ± 0.34.

KQLLDSKIGFEIGIENEEDTSKQK [ZNF449] registered a protein stability index under setting [1] of 5.3 ± 0.27 and a protein stability index under setting [2] of 5.26 ± 0.3. For KQNEKLNNQEEETEFKELDGLREA [CCDC89] the same measures were 5.51 ± 0.28 and 5.54 ± 0.3. For KQPDLTMVRKIGCYAAMKKKIYAM [GAN] the same measures were 2.28 ± 0.45 and 2.21 ± 0.14. Turning to KQYDQQFPDGDDEFDSPHEDIVFE [STX11], the protein stability index is 5.18 ± 0.14 under setting [1] and 5.11 ± 0.2 under setting [2].

The sequence KQYVLLSILLCLLASGLVVFFLFP [TMEM106C] came in with a protein stability index under setting [1] of 2.43 ± 0.28 and a protein stability index under setting [2] of 2.56 ± 0.44. For KRCIVILREIPETTPIEEVKGLFK [LARP4] the same measures were 2.23 ± 0.46 and 1.93 ± 0.47. KRKTFNKVLGHVNNILISAVLPTA [GDAP1] registered a protein stability index under setting [1] of 2.49 ± 0.14 and a protein stability index under setting [2] of 2.42 ± 0.076.

In turn, KRTAQAIEPYITNFFNQVLMLGKT [PDS5B] came in with a protein stability index under setting [1] of 1.95 ± 0.24 and a protein stability index under setting [2] of 2.29 ± 0.085. In the case of KSKHAPRGTHLWEFIRDILIHPEL [ELF3], the protein stability index stood at 2.6 ± 0.75 under setting [1] and 2.26 ± 0.36 under setting [2]. Regarding KSSILTRAGEQRKRSQSMKSYPSS [CLCN6], the protein stability index under setting [1] came out at 4.46 ± 0.25 and the protein stability index under setting [2] is 4.6 ± 0.18.

In the case of LALGPGESLPHRLSCLGQQQQEPP [PLAGL1], the protein stability index runs as follows: under setting [1], 4.145 ± 0.038; under setting [2], 4.23 ± 0.15.

LALKLPDGSYALNGEYTLMPSPTD [ADAMTS4]: the protein stability index runs as follows: under setting [1], 2.35 ± 0.15; under setting [2], 2.41 ± 0.28. For LAQQLCTALLFLATPELSIIHCDL [DYRK1B], in that order: 3.04 ± 0.42 and 3.23 ± 0.42. For LASLQDGAAESPYGHPAGIDYKTT [RAB40B], in that order: 4.4 ± 0.31 and 4.39 ± 0.15. For LATFSSDWEIQEDSRLMCSSVQKA [CCDC3], in that order: 4 ± 0.44 and 3.9 ± 0.29.

Turning to LCGENFSHRSNLIRHQRIHTGEKP [ZNF263], the protein stability index reads like this: under setting [1], 3.91 ± 0.17; under setting [2], 3.72 ± 0.22. Take LCSFLLLLLLQVSSSYAGQFRVIG [MOG]: the protein stability index was found to be 3.39 ± 0.38 under setting [1] and 3.29 ± 0.29 under setting [2]. On to LCSRQDLYPALKGVNTVFHCASPP [NSDHL], for which the protein stability index worked out at 2.66 ± 0.32 under setting [1] and 2.79 ± 0.25 under setting [2]. For LDFCDFTAEMARVLTDSNHVPLQR [FBXO33], in that order: 3.07 ± 0.46 and 3.26 ± 0.34.

Take LDFKDLLESEDWEEDNWDPELMEH [TEX19]: the protein stability index under setting [1] came out at 4.86 ± 0.091 and the protein stability index under setting [2] worked out at 4.94 ± 0.26. LDGAGLMGFVPHNGSLYGQASSER [ADAMTSL2]: the protein stability index under setting [1] was found to be 4.32 ± 0.67 and the protein stability index under setting [2] came to 3.58 ± 0.95. Consider LDGKKKGVEPSPSPIKPGDIKRGI [UFD1], for which the protein stability index came to 4.92 ± 0.24 under setting [1] and 4.92 ± 0.25 under setting [2]. For LDLFAMKPPETSVPVVTPTASTAP [SNAP91] the same measures were 4.25 ± 0.28 and 4.48 ± 0.22. For LDVFGRGDNISDVSKFLEDDKWME [LUC7L3], the protein stability index runs as follows: under setting [1], 4.72 ± 0.27; under setting [2], 4.37 ± 0.14. In the case of LDVIERDLHRQFPFHEMFVSRGGH [TBC1D10A], the protein stability index runs as follows: under setting [1], 2.98 ± 0.3; under setting [2], 2.86 ± 0.21. Consider LEASNYQMMPYMQPVMQSDRTAIR [KLHL13], for which the protein stability index reads like this: under setting [1], 3.9 ± 0.38; under setting [2], 4.17 ± 0.25.
